Data on one substance can be found in publication PMC7319273.

One may read the Kd as the constant that tells how readily two partners part at equilibrium. Higher therefore signals weaker binding.

Experiment [1] concerns the target SARS-CoV-2 Spike protein extracellular domain (S-ECD), as used in ELISA and BLI (SARS-CoV-2) (UniProt P0DTC2).
The target is the same in experiment [2]. Briefly: BLI. A general note: BLI is a label-free optical method that tracks binding on a fibre tip over time.

Sequence of 4A8 (human monoclonal antibody) (VH): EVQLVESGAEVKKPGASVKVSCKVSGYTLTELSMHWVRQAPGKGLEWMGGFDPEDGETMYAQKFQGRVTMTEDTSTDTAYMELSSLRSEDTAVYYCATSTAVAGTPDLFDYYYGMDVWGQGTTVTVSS
Sequence of 4A8 (human monoclonal antibody) (VL): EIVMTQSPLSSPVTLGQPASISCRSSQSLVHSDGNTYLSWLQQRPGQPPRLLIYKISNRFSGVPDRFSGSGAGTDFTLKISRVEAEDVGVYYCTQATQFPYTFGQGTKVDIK

Take 4A8 (human monoclonal antibody): the neutralization of authentic SARS-CoV-2 in Vero-E6 cells, EC50 in experiment [1] stood at 0.61 µg/mL. Also, in experiment [2], the Kd is under 2.14 nM.
